“And” between values parts separate entries of the source, which are not always exact repeats. Equal values may be shown once.
B1: M1 protein (natural protein)
chain: NGDGNPREVIEDLAANNPAIQNIRLRYENKDLKARLENAMEVAGRDFKRAEELEKAKQALEDQRKDLETKLKELQQDYDLAKESTSWDRQRLEKELEEKKEALELAIDQASRDYHRATALEKELEEKKKALELAIDQASQDYNRANVLEKELETITREQEINRNLLGNAKLELDQLSSEKEQLTIEKAKLEEEKQISDASRQSLRRDLDASREAKKQVEKDLANLTAELDKVKEDKQISDASRQGLRRDLDASREAKKQVEKDLANLTAELDKVKEEKQISDASRQGLRRDLDASREAKKQVEKALEEANSKLAALEKLNKELEESKKLTEKEKAELQAKLEAEAKALKEQLAKQAEELAKLRAGKASDSQTPDTKPGNKAVPGKGQAPQAGTKPNQNKAPMKETKRQLPST

What was measured:
[1] = target: M-related protein Mrp216 (mrp type 216), from GAS strain NS88.2 (Streptococcus pyogenes); experiment: SPR
[2] = target: M-related protein (Mrp), mrp type 298, from GAS strain 939–03 (Streptococcus pyogenes); experiment: SPR
[3] = target: M-related protein (Mrp), mrp type 115, from GAS strain NS730 (Streptococcus pyogenes); experiment: SPR
[4] = target: M-related protein (Mrp), mrp type 174, from GAS strain NS452 (Streptococcus pyogenes); experiment: SPR
[5] = target: M-related protein (Mrp), mrp type 52, from GAS strain PRS66 (Streptococcus pyogenes); experiment: SPR
[6] = target: M-related protein Mrp71 (mrp type 71), from GAS strain NS192 (Streptococcus pyogenes); experiment: SPR
[7] = target: M-related protein (Mrp), mrp type 8, from GAS strain NS931 (Streptococcus pyogenes); experiment: SPR
[8] = target: M-related protein Mrp193 (mrp type 193), from GAS strain NS80 (Streptococcus pyogenes); experiment: SPR
[9] = target: M-related protein Mrp105 (mrp type 105), from GAS strain NS210 (Streptococcus pyogenes); experiment: SPR
[10] = target: M-related protein Mrp216 (mrp type 216), from GAS strain NS88.2 (Streptococcus pyogenes); experiment: mass photometry
[11] = target: M1 protein (Streptococcus pyogenes) (UniProt Q99XV0); experiment: mass photometry
[12] = target: M54 protein (Streptococcus pyogenes); experiment: mass photometry
mass photometry = target: the molecule itself; experiment: mass photometry

Row | Molecule | Kd [1] | Kd [2] | Kd [3] | Kd [4] | Kd [5] | Kd [6] | Kd [7] | Kd [8] | Kd [9] | stoichiometry N [10] | stoichiometry N (IgG per Mrp216 dimer) [10] | stoichiometry N (IgG per M1 dimer) [11] | stoichiometry N [12] | stoichiometry N (mass photometry)
1 | human IgG1 (antibody) | 5.4 nM | 16 nM | 13.4 nM | 9.71 nM | 3 nM | 11.1 nM | 15.3 nM | – | – | – | – | – | – | –
2 | human IgG2 (antibody) | 8.12 nM | 19.4 nM | 13.5 nM | 11 nM | 6.4 nM | 15.4 nM | 21.8 nM | 8.17 nM | 7.03 nM | – | – | – | – | –
3 | human IgG3 (antibody) | 302 nM | 226 nM | 244 nM | 152 nM | 145 nM | 220 nM | 256 nM | 201 nM | 208 nM | – | – | – | – | –
4 | M-related protein Mrp216 (mrp type 216), from GAS strain NS88.2 (natural protein) | – | – | – | – | – | – | – | – | – | 2 | – | – | – | –
5 | human IgG (pooled mixture of all IgG subclasses found in serum) (antibody) | – | 9.3 nM | 10.2 nM | 8.8 nM | – | 11.1 nM | – | 6.4 nM | – | – | 1 | 1 | – | –
6 | human IgG4 (antibody) | 4.3 nM | 13.4 nM | 7.4 nM | 11.9 nM | 9.02 nM | 15.2 nM | 11.9 nM | 6.5 nM | 10.6 nM | – | – | – | – | –
7 | M54 protein (natural protein) | – | – | – | – | – | – | – | – | – | – | – | – | 2 and 4 | –
8 | B1 | – | – | – | – | – | – | – | – | – | – | – | – | – | 2

From paper PMC10844976 (The Journal of Biological Chemistry, 2024)
